Source: patent US6355481B1, “Hybridoma cell line and monoclonal antibody for huntingtin protein” (Emory University, priority 1999, dated 2002)

B1: CNTF: ciliary neurotrophic factor (protein, UniProt P26441 1-200, looked up)
Ciliary neurotrophic factor: MAFTEHSPLTPHRRDLCSRSIWLARKIRSDLTALTESYVKHQGLNKNINLDSADGMPVASTDQWSELTEAERLQENLQAYRTFHVLLARLLEDQQVHFTPTEGDFHQAIHTLLLQVAAFAYQIEELMILLEYKIPRNEADGMPINVGDGGLFEKKLWGLKVLQELSQWTVRSIHDLRFISSHQTGIPARGSHYIANNKKM
B2: HAP1-A: huntingtin-associated protein isoform expressed from cloned cDNA in pCIS vector transfected into PC12 cells (protein)
chain: MRPKDQVQSSAGDGTGSGDPATGTPTTQPAADPAPEPSAEPKPAPAQGTGSGQKSGSRTKTGGSFCRSRIRGDSDAPWTRYIFQGPYGPRATGLGTGRAEGIWKTPAAYIGRRPGVSGPERAAFIRELQEALCPNPLPRKKITEDDIKVMLYLLEEKERDLNTAARIGQSLVKQNSVLMEENNKLETMLGSAREEILHLRKQVNLRDDLLQLYSDSDDDEEDEEDEEEEEGEEEEREGQRDQDQQHDHPYGAPKPPPKAETLHHCPQLEALKQKLKLLEEENDHLREEASHLDNLEDKEQMLILECVEQFSEASQQMAELSEVLVLRLEGYERQQKEITQLQAEITKLQQRCQSYGAQTEKLQQQLASEKGVHPESLRAGSHMQDYGSRPRERQEDGKSHRQRSSMPAGSVTHYGYSVPLDALPSFPETLAEELRTSLRKFITDPAYFMERCDTRCREERKKEQGTMPPPPVQDLKPPEDFEAPEELVPEEELGAIEEVGTAEDGPAEETEQASEETEAWEEVEPEVDEATRMNVVVSALEASGLGPSHLDMKYVLQQLSNWQDAHSKRQQKQKVVPKGECSRRGHPPASGTSYRSSTL
B3: HD-23Q: N-terminal region of human huntingtin (amino acids 1-253) with 23 glutamines, expression construct (protein)
chain: MATLEKLMKAFESLKSFQQQQQQQQQQQQQQQQQQQQQPPPPPPPPPPPQLPQPPPQAQPLLPQPQPPPPPPPPPPGPAVAEEPLHRPKKELSATKKDRVNHCLTICENIVAQSVRNSPEFQKLLGIAMELFLLCSDDAESDVRMVADECLNKVIKALMDSNLPRLQLELYKEIKKNGAPRSLRAALWRFAELAHLVRPQKCRPYLVNLLPCLTRTSKRPEESVQETLAAAVPKIMASFGNFANDNEIKVLLK

Experiments:
parental PC12 cells = assay: Neurite outgrowth assay, parental PC12 cells; assay type: cell-based, rat; conditions: control/parental PC12 cells; IL-6 20 ng/ml, CNTF 20 ng/ml, EGF 10 ng/ml, bFGF 20 ng/ml
Protocol: To evaluate neurite outgrowth, we plated the cells at low density (2×10^4 Cells/cm^2) onto six-well plates. Cell cultures were treated with NGF (100 ng/ml) for 48 hr or with staurosporine (50-100 nM) and EGF (10 ng/ml) for 16 hr and were fixed with 4% paraformaldehyde in PBS for 15 min. After several washes with PBS, cells with neurites exceeding the cell diameter were counted using an inverted microscope (Olympus Optical CK2, Tokyo, Japan). At the same time, five to seven images (10×) were captured by a Pixera camera, and the percentage of cells with neurites was confirmed by analyzing these images. On average, 500-800 cells were counted for each group.

PC12 cells = assay: Transfection of PC12 cells, immunofluorescence: neurites and perinuclear inclusions; assay type: cell-based, rat; conditions: for transfected cells with neurites: neurites exceeding two body diameters, vector alone 4.7%
Protocol: cDNA constructs and transfection of cells. Cloned HAP1-A and HAP1-B cDNAs were inserted into the expression vector pCIS (Li et al., 1995) carrying the cytomegalovirus promoter. The expression constructs encoding N-terminal human huntingtin (253 amino acids) with 23, 73, or 120 glutamines were obtained in a previous study (Li and Li, 1998). PC12 cells were plated onto two-well chamber slides at a density of 50,000/cm^2 and cultured for 24 h. Two micrograms of plasmid DNA was then added to each well in a 1-ml solution containing Lipofectamine (10 μg/ml), yielding 3-8% transfected cells. Following 18-24 h transfection, the media were replaced with fresh growth media and the cells were grown for another 24 h before immunofluorescent staining. The immunostaining images were captured using a 3CCD camera video system. Neurite length was measured as cell body diameters. The average sizes (μm) of perinuclcar huntingtin inclusions were obtained by measuring the diameters of inclusions in 58-112 cells transfected with huntingtin alone. The percentage of transfected cells with neurites that exceeded two body diameters was obtained by counting 200-300 transfected cells in three independent experiments. For double transfection, equal amounts (2 μg for each) of HAP1-A and huntingtin cDNAs were transfected into PC12 cells in each well of six-well dishes. The transfected cells were immunostained with the rabbit polyclonal antibody for HAP1-A and mouse monoclonal antibody for huntingtin.

Row | Molecule | neurite outgrowth promoted by growth factor (parental PC12 cells) | length of the neurites (PC12 cells; single transfection) | transfected cells with neurites (PC12 cells; single transfection) | cells with elongated neurites (PC12 cells; double transfection with HAP1-A, HAP1-A alone 29.4%)
1 | B1 | did not promote neurite outgrowth |  |  | 
2 | B2 |  | 3.8 body diameters | 29.4% | 
3 | B3 |  |  | 5.1% | 24.6%
